Measured values taken from patent US20250257133A1 (ADAGENE PTE, published 2025).
Substitutions are numbered along the chain they refer to. Numbers in names are those of the source.

B1: TY24884 (antibody, human IgG4 S228P, kappa, V domains shown)
VH: QVQLVQSGAEVKKPGSSVKVSCKASGFTFSGYAIHWVRQAPGQGLEWIGQIYHSGSTYYNPSLKSRVTITADKSTSTAYMELSSLRSEDTAVYYCARSGYGGYDFDYWGQGTLVTVSS
VL: DIQLTQSPSSLSASVGDRVTITCRASQSVPRRYLAWYQQKPGKAPKLLIYAASTLQSGVPSRFSGSGSGTDFTLTISSLQPEDFATYYCQQYYRSPITFGQGTKVEIKR
notes: hIgG4/S241P
B2: TY24869 (antibody, human IgG4 S228P, kappa, V domains shown)
VH: QVQLVQSGAEVKKPGSSVKVSCKASGYSISSGYHWGWIRQAPGQGLEWIGAIYHSGSTYYSPSLKSRVTITADKSTSTAYMELSSLRSEDTAVYYCARSGLVYYAFDYWGQGTLVTVSS
VL: DIQLTQSPSSLSASVGDRVTITCRASQGIGSYLAWYQQKPGKAPKLLIYDASSLESGVPSRFSGSGSGTDFTLTISSLQPEDFATYYCQQYSTSPLTFGQGTKVEIKR
notes: hIgG4/S241P
B3: TY24876 (antibody, human IgG4 S228P, kappa, V domains shown)
VH: B2 VH with S30T, S99G, G100P, V102S
VL: DIQLTQSPSSLSASVGDRVTITCRASQSVSRYLAWYQQKPGKAPKLLIYDASNRATGIPSRFSGSGSGTDFTLTISSLQPEDFATYYCQQYYRSPITFGQGTKVEIKR
notes: hIgG4/S241P
B4: TY24879 (antibody, human IgG4 S228P, kappa, V domains shown)
VH: B2 VH with A51S, S61N, V102R, Y108V
VL: DIQLTQSPSSLSASVGDRVTITCAASQDVSTAVAWYQQKPGKAPKLLIYAASSLQSGVPSRFSGSGSGTDFTLTISSLQPEDFATYYCQQSYRSPITFGQGTKVEIKR
notes: hIgG4/S241P
B5: TY24859 (antibody, human IgG4 S228P, kappa, V domains shown)
VH: EVQLVESGGGLVQPGGSLRLSCAASGFSLSTGGVGVGWIRQAPGKGLEWIGEIYHSGSTYYSPSLKSRVTISRDNSKNTLYLQLNSLRAEDTAVYYCARYGYSYYALDYWGQGTLVTVSS
VL: DIQLTQSPSSLSASVGDRVTITCSASSSVGYVQWYQQKPGKAPKLLIYDASNLETGVPSRFSGSGSGTDFTLTISSLQPEDFATYYCQQSYTSPRTFGQGTKVEIKR
notes: hIgG4/S241P
B6: TY24866 (antibody, human IgG4 S228P, kappa, V domains shown)
VH: B5 VH with S62P, G101E, Y104S, A106G
VL: B2 VL with G28D, G30R, S31K, Y32F, Y91S, S92Y, T93R, L96R
notes: hIgG4/S241P
B7: TY24878 (antibody, human IgG4 S228P, kappa, V domains shown)
VH: QVQLVQSGAEVKKPGSSVKVSCKASGFSLSTGGVAVAWIRQAPGQGLEWIGQIYYSGSTYYNPSLKSRVTITADKSTSTAYMELSSLRSEDTAVYYCARSSAHYYFDVWGQGTLVTVSS
VL: DIQLTQSPSSLSASVGDRVTITCRASESVDFQGISFLDWYQQKPGKAPKLLIYDASSLESGVPSRFSGSGSGTDFTLTISSLQPEDFATYYCQQSYRSPITFGQGTKVEIKR
notes: hIgG4/S241P
B8: TY24858 (antibody, human IgG4 S228P, kappa, V domains shown)
VH: EVQLVESGGGLVQPGGSLRLSCAASGYSISSGHHWTWIRQAPGKGLEWIGEIYHSGSTYYSPSLKSRVTISRDNSKNTLYLQLNSLRAEDTAVYYCARRDYGSSYFDYWGQGTLVTVSS
VL: B1 VL with P30S, R32S, Y33F, A51D, T54N, L55R, Q56A, S57T, V59I
notes: hIgG4/S241P
B9: TY24856 (antibody, human IgG4 S228P, kappa, V domains shown)
VH: B8 VH with T36S, Y101F, S103A
VL: DIQLTQSPSSLSASVGDRVTITCRASQGVGPWLAWYQQKPGKAPKLLIYAASSLQSGVPSRFSGSGSGTDFTLTISSLQPEDFATYYCQQYYSYSTFGQGTKVEIKR
notes: hIgG4/S241P
B10: TY24877 (antibody, human IgG4 S228P, kappa, V domains shown)
VH: QVQLVQSGAEVKKPGSSVKVSCKASGYTFTNYGIHWVRQAPGQGLEWIGEIYHSGSTYYSPSLKSRVTITADKSTSTAYMELSSLRSEDTAVYYCARGPLSYYALDYWGQGTLVTVSS
VL: B2 VL with G28S, G30R, S31R, Y32F, A34N, S92Y, T93R, L96I
notes: hIgG4/S241P
B11: TY24860 (antibody, human IgG4 S228P, kappa, V domains shown)
VH: B5 VH with G32S, G37S, Y100K, S103Y, L107F, Q112P
VL: B4 VL with A24R, V29I, S30G, T31S, A32F, V33L, I96P
notes: hIgG4/S241P
B12: TY24857 (antibody, human IgG4 S228P, kappa, V domains shown)
VH: B5 VH with G32S, G35A, Y100H, S103H
VL: B4 VL with A24P, S30G, A50D, Q55E, S91Y, R93S, I96P
notes: hIgG4/S241P
B13: TY24864 (antibody, human IgG4 S228P, kappa, V domains shown)
VH: B5 VH with G32S, G37S, E52A, L107F
VL: B9 VL with G28T, V29I, P31S, W32F, A34N, A50D, Q55E, Y91S, S95Q
notes: hIgG4/S241P
B14: TY24855 (antibody, human IgG4 S228P, kappa, V domains shown)
VH: EVQLVESGGGLVQPGGSLRLSCAASGYSITSGHHWSWIRQAPGKGLEWIGDIYHSGSTYYNPSLKSRVTISRDNSKNTLYLQLNSLRAEDTAVYYCARKDDYYAFDYWGQGTLVTVSS
VL: B7 VL with S26P, E27Q, Q32H, I34K, D38H, S57N, L58R, E59A, S60T, V62I
notes: hIgG4/S241P

target: Human CD28 (ELISAs of Examples 4 and 13) (human, UniProt P10747 19-152, limits assumed); test: ELISA, blocking of CD28-CD80

| Binder | IC50 |
| --- | --- |
| B1 | 0.28 nM |
| B2 | 0.55 nM |
| B3 | 0.54 nM |
| B4 | 0.42 nM |
| B5 | 0.42 nM |
| B6 | 0.27 nM |
| B7 | 0.35 nM |

target: T1, His-tagged human CD28 protein (human, UniProt P10747 19-152); test: Octet BLI, mAb captured;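 note: Anti-human Fc biosensors captured the antibodies, then His-tagged protein analytes at 100 nM associated for 300 s and dissociated for 300 s, fitted by a 1:1 Langmuir model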
T1 construct: not shown: His tag

| Binder | Kd | koff | kon |
| --- | --- | --- | --- |
| B1 | 2.42 nM | 0.000166 s⁻¹ | 68400 M⁻¹ s⁻¹ |
| B8 | 9.88 nM | 0.000702 s⁻¹ | 71000 M⁻¹ s⁻¹ |
| B9 | 7.8 nM | 0.000538 s⁻¹ | 68900 M⁻¹ s⁻¹ |
| B2 | 2.73 nM | 0.000128 s⁻¹ | 46800 M⁻¹ s⁻¹ |
| B3 | < 0.001 nM | < 1e-07 s⁻¹ | 32500 M⁻¹ s⁻¹ |
| B4 | < 0.001 nM | < 1e-07 s⁻¹ | 59400 M⁻¹ s⁻¹ |
| B10 | 7.19 nM | 0.000193 s⁻¹ | 26900 M⁻¹ s⁻¹ |
| B5 | 2.68 nM | 0.00019 s⁻¹ | 70800 M⁻¹ s⁻¹ |
| B11 | 6.66 nM | 0.000421 s⁻¹ | 63200 M⁻¹ s⁻¹ |
| B12 | 8.64 nM | 0.00063 s⁻¹ | 72900 M⁻¹ s⁻¹ |
| B6 | < 0.001 nM | < 1e-07 s⁻¹ | 58000 M⁻¹ s⁻¹ |
| B13 | 4.41 nM | 0.000416 s⁻¹ | 94200 M⁻¹ s⁻¹ |
| B7 | 4.21 nM | 0.000411 s⁻¹ | 97500 M⁻¹ s⁻¹ |
| B14 | 7.93 nM | 0.000628 s⁻¹ | 79200 M⁻¹ s⁻¹ |

target: T2, His-tagged human CTLA4 protein (human, UniProt P16410 36-161, limits assumed); test: Octet BLI, mAb captured;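 note: Anti-human Fc biosensors captured the antibodies, then His-tagged protein analytes at 100 nM associated for 300 s and dissociated for 300 s, fitted by a 1:1 Langmuir model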
T2 construct: not shown: His tag
T2 sequence (P16410 36-161 limits assumed): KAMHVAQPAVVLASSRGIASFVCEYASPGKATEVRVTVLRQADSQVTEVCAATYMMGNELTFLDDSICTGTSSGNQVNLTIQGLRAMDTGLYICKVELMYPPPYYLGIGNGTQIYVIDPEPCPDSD

| Binder | Kd | koff | kon | binding result |
| --- | --- | --- | --- | --- |
| B1 | 6.36 nM | 0.00408 s⁻¹ | 641000 M⁻¹ s⁻¹ | – |
| B8 | 7.9 nM | 0.00242 s⁻¹ | 306000 M⁻¹ s⁻¹ | – |
| B9 | 5.13 nM | 0.00156 s⁻¹ | 304000 M⁻¹ s⁻¹ | – |
| B2 | 1.2 nM | 0.000454 s⁻¹ | 379000 M⁻¹ s⁻¹ | – |
| B3 | 4.28 nM | 0.000585 s⁻¹ | 137000 M⁻¹ s⁻¹ | – |
| B4 | 7.17 nM | 0.00313 s⁻¹ | 437000 M⁻¹ s⁻¹ | – |
| B10 | 13.2 nM | 0.00311 s⁻¹ | 235000 M⁻¹ s⁻¹ | – |
| B5 | 6.63 nM | 0.00311 s⁻¹ | 469000 M⁻¹ s⁻¹ | – |
| B11 | – | – | – | no binding (tested: 100 nM CTLA4) |
| B12 | 5.44 nM | 0.00355 s⁻¹ | 652000 M⁻¹ s⁻¹ | – |
| B6 | 7.64 nM | 0.004 s⁻¹ | 524000 M⁻¹ s⁻¹ | – |
| B13 | 5.5 nM | 0.00284 s⁻¹ | 517000 M⁻¹ s⁻¹ | – |
| B7 | 0.969 nM | 0.00041 s⁻¹ | 423000 M⁻¹ s⁻¹ | – |
| B14 | 4.02 nM | 0.00305 s⁻¹ | 760000 M⁻¹ s⁻¹ | – |

target: T3, Human CD28 on cells (human, UniProt P10747 19-220); test: flow cytometry, Jurkat cells
T3 construct: Jurkat E6-1 cells, primary human T cells, or transfected HEK293F cells; also called CD28 on Jurkat cells; CD28 on human CD3+ T cells
Procedure: Next, the cells were washed twice with DPBS and further incubated with a APC-anti-human IgG Fc secondary antibody (1 μg/mL, 100 μL/well, Biolegend) for 30 minutes at 4° C. Finally, the cells were washed twice with DPBS and suspended in FACS buffer for flow cytometry analysis. For analysis, the Mean Fluorescence Intensity (MFI) values versus concentrations were plotted using FlowJo 10 software (FlowJo LLC) and the data were further fitted with four-parameter non-linear regression to obtain EC₅₀ values by GraphPad Prism version 7 for Windows, GraphPad Software, La Jolla California USA, www.graphpad.com.

| Binder | EC50 |
| --- | --- |
| B1 | 1.09 nM |
| B8 | 0.7 nM |
| B9 | 0.76 nM |
| B2 | 1.07 nM |
| B3 | 0.38 nM |
| B4 | 1.17 nM |
| B10 | 0.79 nM |
| B5 | 0.97 nM |
| B11 | 0.78 nM |
| B12 | 0.75 nM |
| B6 | 0.7 nM |
| B13 | 0.54 nM |
| B7 | 0.39 nM |
| B14 | 0.61 nM |

target: T4, Recombinant human CD28-Fc (human, UniProt P10747 19-152); test: ELISA, coated CD28-Fc
T4 construct: not shown: Fc part

| Binder | EC50 |
| --- | --- |
| B1 | 1.02 nM |
| B2 | 0.87 nM |
| B3 | 1.02 nM |
| B4 | 0.9 nM |
| B5 | 1.34 nM |
| B6 | 0.57 nM |
| B7 | 1.06 nM |

target: T5, Recombinant mouse CD28-Fc (mouse, UniProt P31041 20-150); test: ELISA, coated CD28-Fc
T5 construct: not shown: Fc part
T5 sequence (P31041 20-150 limits assumed): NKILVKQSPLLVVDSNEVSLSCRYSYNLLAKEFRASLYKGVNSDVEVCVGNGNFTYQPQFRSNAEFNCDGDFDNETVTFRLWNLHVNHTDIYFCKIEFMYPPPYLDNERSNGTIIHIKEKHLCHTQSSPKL

| Binder | EC50 |
| --- | --- |
| B1 | > 44.4 nM |
| B2 | > 14.8 nM |
| B3 | 3.93 nM |
| B4 | > 1.65 nM |
| B5 | > 44.4 nM |
| B6 | > 1.65 nM |
| B7 | > 14.8 nM |
